In experiment [1] the target is human anti-β2GPI mAb ILA-1. Description: competition ELISA, β2GPI-coated plates, 10 µM peptide. In general terms: ELISA stands for enzyme-linked immunosorbent assay.
Experiment [2] deals with human anti-β2GPI mAb ILA-3. The experiment is described as above.
Experiment [3] has as its target human anti-β2GPI mAb ILA-3. The experiment can be described thus: cyto-ELISA on HUVEC coated with 10 µg/ml β2GPI, 10 µM peptide.
Experiment [4] concerns the target human anti-β2GPI mAb ILA-3. The experiment can be described thus: cell-based or functional assay.
The target of experiment [5] is human anti-β2GPI mAb G-3. Description: competition ELISA, β2GPI-coated plates, 10 µM peptide.
Experiment [6] concerns the target human anti-β2GPI mAb G-3. The experiment can be described thus: cyto-ELISA on HUVEC coated with 10 µg/ml β2GPI, 10 µM peptide.
In experiment [7] the target is human anti-β2GPI mAb G-3. Description: cell-based or functional assay.
Experiment [8] has as its target human anti-β2GPI mAb ILA-1. The experiment can be described thus: cyto-ELISA on HUVEC coated with 10 µg/ml β2GPI, 10 µM peptide.
Experiment [9] addresses human anti-β2GPI mAb ILA-1. Description: cell-based or functional assay.
For experiment [10], the target named is human anti-β2GPI mAb ILA-1. Description: competition ELISA, mAb 10 µg/ml preincubated with peptide, β2GPI-coated plates, 10 µM peptide.

For KDKATFGTHDG [synthetic peptide B (monomer), Lys Asp Lys Ala Thr Phe Gly Thr His Asp Gly], in [1], the % inhibition of ILA-1 mAb binding to β2GPI amounted to 10%. The same molecule returned a % inhibition of ILA-3 mAb binding to β2GPI in experiment [2] of 77%. The molecule also came in with a % inhibition of ILA-3 mAb binding to HUVEC in experiment [3] of 72%. In experiment [4], this molecule had a % inhibition of adhesion of U937 monocyte cells to HUVEC of 95% and an E-selectin expression by HUVEC (ELISA O.D.) of 0.211 O.D.
For CATLRVYKGG [synthetic peptide C (monomer), Cys Ala Thr Leu Arg Val Tyr Lys Gly Gly], the % inhibition of ILA-1 mAb binding to β2GPI in experiment [1] was determined as 11%. Further, in the experiment with human anti-β2GPI mAb G-3 [5], the % inhibition of G-3 mAb binding to β2GPI stood at 98%. The same molecule gave a % inhibition of G-3 mAb binding to HUVEC with human anti-β2GPI mAb G-3 [6] of 92%. In the experiment with human anti-β2GPI mAb G-3 [7], the % inhibition of adhesion of U937 monocyte cells to HUVEC amounted to 92%, the E-selectin expression by HUVEC (ELISA O.D.) came out at 0.215 O.D, the ICAM-1 expression by HUVEC (ELISA O.D.) was 0.186 O.D and the VCAM-1 expression by HUVEC (ELISA O.D.) was determined as 0.174 O.D.
NTLKTPRVGG [synthetic peptide A (monomer), Asn Thr Leu Lys Thr Pro Arg Val Gly Gly]: in experiment [8], the % inhibition of ILA-1 mAb binding to HUVEC was determined as 95%. In [9], this molecule registered a % inhibition of adhesion of U937 monocyte cells to HUVEC of 84%, an E-selectin expression by HUVEC (ELISA O.D.) of 0.239 O.D, an ICAM-1 expression by HUVEC (ELISA O.D.) of 0.204 O.D and a VCAM-1 expression by HUVEC (ELISA O.D.) of 0.252 O.D. Also, in experiment [10], the % inhibition of ILA-1 mAb binding to β2GPI stood at 97%.

Values taken from US20050107584A1.
